This note sets out measurements from US20190185532A1 (UNIVERSITY OF BIRMINGHAM, published 2019).

Assay in all cases: flow cytometry on transfected HEK293T cells, streptavidin-PE
The target of assay [1] is T1, CLEC14A (human, wild type, C-terminal GFP tag, expressed in HEK293T) (human, UniProt Q86T13 22-490).
T1 construct: On cells in flow cytometry; as non-reduced HEK293T lysate in far western blots; also called CLEC14A wt; cell surface expressed CLEC14A; not shown: C-terminal green fluorescent protein (GFP) tag from vector pEGFP-N1
T1 sequence: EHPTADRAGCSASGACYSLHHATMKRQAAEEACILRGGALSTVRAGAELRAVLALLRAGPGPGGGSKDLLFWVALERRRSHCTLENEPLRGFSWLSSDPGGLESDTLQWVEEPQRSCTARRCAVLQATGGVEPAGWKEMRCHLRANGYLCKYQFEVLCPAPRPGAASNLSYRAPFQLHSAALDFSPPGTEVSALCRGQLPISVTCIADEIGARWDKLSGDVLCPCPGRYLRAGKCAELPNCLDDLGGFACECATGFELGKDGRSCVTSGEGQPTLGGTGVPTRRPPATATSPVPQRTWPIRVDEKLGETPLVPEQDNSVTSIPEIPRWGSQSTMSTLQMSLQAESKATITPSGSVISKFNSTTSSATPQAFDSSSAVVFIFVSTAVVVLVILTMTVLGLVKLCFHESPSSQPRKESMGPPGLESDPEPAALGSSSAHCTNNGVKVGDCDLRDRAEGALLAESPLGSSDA
An excerpt: (§1) The minimal CLEC14A binding fragment is highlighted in black. (B,C) HEK293T were transfected with truncation mutants. Lysates were far western blotted under reduced conditions with CLEC14A extracellular domain fused to an Fc tag (CLEC14A-ECD-Fc) and western blotted by use of His tag antibodies. (B) The smallest binding fragment was identified as MMRN2⁴⁸⁷⁻⁸²⁰, MMRN2^FL fails to bind CLEC14A-ECD-Fc. (C) The smallest MMRN2 fragment binding CLEC14A is MMRN2⁵³⁰⁻⁶²⁴. (D) MMRN2⁴⁹⁵⁻⁶⁷⁴ and MMRN2⁴⁹⁵⁻⁶⁰³ bind to streptavidin under reducing conditions after biotinylation. (E) Flow cytometry histograms of HEK293T transfected with GFP tagged CTLD group 14 family members and stained with biotinylated MMRN2⁴⁹⁵⁻⁶⁷⁴ (grey line), confirming binding to CLEC14A and CD93 but not thrombomodulin. Streptavidin-PE was used as a control for background binding (grey shaded).
(§2) The human MMRN2⁴⁹⁵⁻⁶⁷⁴ fragment along with the non-CLEC14A binding fragment MMRN2⁴⁹⁵⁻⁶⁰³ was expressed in E. coil with a His tag for purification and a BirA tag for specific biotinylation (17). Biotinylated proteins could bind to streptavidin in western blots (FIG. 2D) and MMRN2⁴⁹⁵⁻⁶⁷⁴ could bind to cell surface expressed CLEC14A and CD93 but not thrombomodulin detected by flow cytometry. This confirmed the CLEC14A and CD93 interactions likely occur in the same region of MMRN2 (FIG. 2E).
(§3) HUVEC or transfected HEK293T cells were detached from tissue culture plates using cell dissociation buffer or scraped and 5×10⁵ cells were stained with 20 ug/mL of antibody of interest or 20 μg/mL of recombinant protein. In blocking experiments, hCLEC14A-ECD-Fc was incubated with 2× molar excess of antibody or recombinant protein on ice for 1 hour. Flow cytometry buffer (PBS with 0.2% (w/v) BSA and 0.02% (w/v) sodium azide) was used for all wash and incubation steps. Samples were analysed on a FACSCalibur machine (BD Biosciences). […] Isotype control staining or human Fc alone was used as background fluorescence and this was subtracted from the geometric mean fluorescence intensity of each sample.

For assay [2], the target named is T2, CD93 (human, wild type, C-terminal GFP tag, expressed in HEK293T) (human, UniProt Q9NPY3 22-652).
T2 construct: On cells in flow cytometry; as non-reduced HEK293T lysate in far western blots; also called CD93 wild type (wt); cell surface expressed CD93; not shown: C-terminal green fluorescent protein (GFP) tag from vector pEGFP-N1
T2 sequence: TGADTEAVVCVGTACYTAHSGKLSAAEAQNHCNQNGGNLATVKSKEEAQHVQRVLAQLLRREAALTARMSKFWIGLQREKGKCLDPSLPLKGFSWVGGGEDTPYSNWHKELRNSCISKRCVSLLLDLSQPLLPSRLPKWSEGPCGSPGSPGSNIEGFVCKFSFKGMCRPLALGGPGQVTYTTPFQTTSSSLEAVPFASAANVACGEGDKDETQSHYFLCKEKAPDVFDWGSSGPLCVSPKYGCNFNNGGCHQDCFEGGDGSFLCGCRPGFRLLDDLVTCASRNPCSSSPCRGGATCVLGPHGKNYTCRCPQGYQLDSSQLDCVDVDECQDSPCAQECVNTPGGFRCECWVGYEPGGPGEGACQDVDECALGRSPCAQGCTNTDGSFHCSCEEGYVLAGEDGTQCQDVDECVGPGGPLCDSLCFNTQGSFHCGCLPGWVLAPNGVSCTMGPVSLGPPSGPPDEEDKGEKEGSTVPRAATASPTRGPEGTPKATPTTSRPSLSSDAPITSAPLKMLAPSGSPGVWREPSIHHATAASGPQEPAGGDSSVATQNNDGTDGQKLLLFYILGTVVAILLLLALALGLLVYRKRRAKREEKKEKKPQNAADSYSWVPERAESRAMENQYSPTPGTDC
Source text: as §1, §2, §3

Assay [3] deals with T3, thrombomodulin (human, C-terminal GFP tag, expressed in HEK293T) (human, UniProt P07204 19-575).
T3 construct: whole, on cells; On cells in flow cytometry; as non-reduced HEK293T lysate in far western blots; also called THBD; THBD wt; not shown: C-terminal green fluorescent protein (GFP) tag from vector pEGFP-N1
Source text: as §1, §2, §3

T3 sequence (P07204 19-575): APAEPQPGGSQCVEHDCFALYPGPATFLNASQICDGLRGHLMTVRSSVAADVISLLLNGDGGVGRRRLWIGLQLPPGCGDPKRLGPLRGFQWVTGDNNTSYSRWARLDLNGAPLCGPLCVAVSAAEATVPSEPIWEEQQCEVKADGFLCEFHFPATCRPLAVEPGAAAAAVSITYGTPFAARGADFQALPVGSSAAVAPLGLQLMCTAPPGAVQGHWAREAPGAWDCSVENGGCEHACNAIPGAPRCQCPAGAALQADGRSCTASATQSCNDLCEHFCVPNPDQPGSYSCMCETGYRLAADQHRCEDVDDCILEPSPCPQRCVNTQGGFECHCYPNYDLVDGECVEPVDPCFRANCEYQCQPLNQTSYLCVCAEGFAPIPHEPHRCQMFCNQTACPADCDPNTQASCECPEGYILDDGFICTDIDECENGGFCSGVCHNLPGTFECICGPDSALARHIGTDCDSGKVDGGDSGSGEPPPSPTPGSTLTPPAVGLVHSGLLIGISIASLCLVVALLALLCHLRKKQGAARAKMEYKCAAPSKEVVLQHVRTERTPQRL

B1: biotinylated MMRN2^495-674 (human, expressed in E. coli with a His tag and a BirA tag) (ligand)
chain: QKLYLDLDVIREGQRDATRALEETQVSLDERRQLDGSSLQALQNAVDAVSLAVDAHKAEGERARAATSRLRSQVQALDDEVGALKAAAAEARHEVRQLHSAFAALLEDALRHEAVLAALFGEEVLEEMSEQTPGPLPLSYEQIRVALQDAASGLQEQALGWDELAARVTALEQASEPPRP
modifications: biotin on the BirA tag
notes: Used for staining of transfected HEK293T cells in flow cytometry, detected with streptavidin-PE; not shown: BirA tag and His tag (vector pET23a)
Regarding B1, the binding result is given as “binds” in assay [1], “binds” in assay [2] and “no binding (tested: 20 µg/mL)” in assay [3].
